Here are results for 1 molecule from patent publication US20120165265A1 (published 2012).

This assay deals with T1, Flag-myc-CAD (Homo sapiens (Human), UniProt Q13586 342-448).
T1 construct: also called Flag-tagged CAD; not shown: Flag and myc tags from the custom vector pDEST-pGWI-Flag-Myc-x
Put plainly: co-immunoprecipitation from HEK 293T cells. The method, then:
Immunoprecipitation and Immunoblot Analysis. […] Lysates were spun at 12,000 rpm for 10 min, and the supernatant was incubated with anti-Flag M2 agarose beads (Sigma), or anti-myc or -HA antibody followed by IgG agarose beads (Pierce). Lysates and immunoprecipitates were subjected to SDS-PAGE, probed with HRP-conjugated secondary antibody and detected by enhanced chemiluminescence (Pierce).
STIM1-CAD BINDS TO THE N- AND C-TERMINI OF ORAI1. To identify regions of Orai1 important for activation by CAD, we characterized the binding of CAD to Orai1 using two approaches. First we expressed fusions of NubG with the N-terminus, the II-III cytoplasmic loop and the C-terminus of Orai1 in yeast together with different CAD-Cub-LV constructs. […] Based on the level of b-gal activity, CAD appears to interact with the Orai1 C-terminus with a higher affinity than with the N-terminus.

T1 sequence (Q13586 342-448): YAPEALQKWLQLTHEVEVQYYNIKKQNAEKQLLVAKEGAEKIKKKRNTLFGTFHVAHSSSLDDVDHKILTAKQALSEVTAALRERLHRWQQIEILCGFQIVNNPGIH

B1: Orai1 1-70, expressed in HEK 293T cells (other)
chain: MHPEPAPPPSRSSPELPPSGGSTTSGSRRSRRRSGDGEPPGAPPPPPSAVTYPDWIGQSYSEVMSLNEHS
notes: not shown: The detection tag of the HEK construct (probably N-terminal YFP)
For the molecule B1, the binding result is on record as “no binding”.
